Reference: PMC9302814

Biological target: SARS-CoV-2 Spike
Experiment: SPR

CC40.8 was tested, and the Kd was 1.6 nM and the koff was 0.00038 s⁻¹.
CV3-25 was tested, and the Kd was 2.5 nM and the koff was 0.00061 s⁻¹.
S2P6 gave a Kd of 9.7 nM and a koff of 0.0033 s⁻¹.
